B1: KRT18 (parent)
chain: RAQYDELARKNREELDKYWSQQIE
B2: INTS3 (parent)
chain: FSDDEEDLNSKGKKREFRFHPIKE

Variants of: B1
Test: protein stability index of a GFP-peptide fusion (GPS, HEK-293T) (PSI 1-6); higher = more stable
Settings: c terminus: a fixed tail appended
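Also: lentivirally expressed fusions sorted by FACS into six bins by GFP to DsRed ratio, PSI derived from sequencing read proportions per bin multiplied by bin number.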

Protein stability index of substitutions, site by site:
I23: A 3.97 | K 5.03 | L 2.21 | H 2.23 | V 4.14 | W 3.97 | M 2.28 | P 4.96 | N 4.39 | D 5.28 | E 5.1 | S 4.96 | F 2.23 | T 4.69 | R 4.68 | G 4.41 | Q 4.43 | C 3.45
S20: F 3.04 | G 3.97 | N 2.79 | E 4.23 | T 2.79 | M 2.56 | P 3.85 | V 3.18 | L 2.33 | Y 2.79 | I 2.31 | W 2.6 | Q 2.17 | D 4.29 | K 1.22 | R 2.17 | C 2.63 | A 3.15 | H 1.59
Q22: N 3.31 | L 3.15 | I 3.37 | V 3.08 | W 4 | T 3.99 | S 3.82 | A 3.44 | D 4.67 | E 3.7 | F 2.75 | R 3.78 | M 2.67 | H 4.67 | Y 3.44 | K 4.27 | P 3.83 | C 2.31 | G 3.68
W19: L 4.42 | C 4.91 | A 4.73 | V 4.68 | T 4.97 | F 4.19 | E 5.28 | N 4.54 | R 4.71 | P 5.03 | Q 5.13 | G 5.07 | K 4.41 | D 4.56 | M 5.01 | Y 4.58 | I 4.5 | H 4.85 | S 4.25
Y18: W 3.62 | T 4.57 | V 4.33
E24: S 3.27 | M 2.31 | Y 2.73 | H 3.72 | W 2.5 | K 3.34 | G 3.77 | F 3.16 | Q 2.94 | N 3.13 | C 3.05 | L 2.23 | P 3.87 | R 2.3 | T 3.36 | A 2.48 | V 3.01 | I 3.12 | D 3.8
Q21: S 3.4 | A 3.05 | T 3.76 | G 3.58 | Y 3.08 | H 3.41 | L 2.74 | N 3.71 | R 3.81 | M 2.98 | V 3.17 | D 2.88 | C 4 | K 3.06 | E 2.88 | F 3.62 | P 4.25 | I 3.05 | W 3.28

Variants of: B2
Test: as above
Settings: c terminus: a fixed tail appended

Protein stability index of substitutions, site by site:
G12: F 1.91 | D 2.92 | L 2.29 | E 3.02 | C 2.13 | K 1.98 | A 2.67 | I 2.14 | H 2.58
K11: C 2.99 | D 3.56 | Q 3.62 | W 1.9 | T 3.35 | S 3.22 | P 3.38 | L 2.73 | R 3.2 | I 3.48 | E 3.38 | G 3.02 | Y 3.29 | A 3.62 | N 3.44 | F 3.24 | M 2.79 | H 3.13 | V 2.89
N9: Q 2.68 | D 3.79 | P 2.61 | F 2.31 | L 2.99 | W 2.12 | I 2.06 | G 2.82 | S 2.98 | K 2.21 | T 3.36 | R 2.76 | V 3.83 | M 2.66 | C 2.67 | E 3.6 | A 3.15 | Y 2.29 | H 2.77
S10: I 2.17 | L 2.57 | Q 3.43 | H 2.64 | K 2.38 | E 2.99 | R 2.41 | A 2.58 | N 3.37 | V 2.75 | C 3.08 | T 2.87 | F 2.45 | W 3.56 | P 2.63 | D 3.64 | G 2.9 | M 3.56 | Y 2.59
E5: Q 2.3 | W 1.88 | V 2.9 | S 2.1 | N 2.39 | L 2.55 | P 2.48 | R 2 | D 2.68 | H 2.18 | I 2.81 | M 2.61 | C 2.49 | F 2.41 | Y 2.29 | G 2.44 | A 2.81 | K 2.17 | T 2.68
F1: K 2.33 | P 3.19 | N 3.24 | I 3.2 | R 2.71 | G 2.99 | Q 3 | A 2.89 | H 2.72 | W 2.84 | S 2.32 | D 2.84 | E 3.36 | T 3.05 | M 2.58 | Y 2.94 | C 2.73 | L 2.69 | V 3.29
D4: R 1.85 | K 2.02 | E 3.05 | C 2.4 | A 2.72 | I 2.38 | L 2.43 | G 2.52 | Q 2.9 | S 2.75 | T 2.56 | W 2.4 | P 2.53 | M 2.4 | N 2.82 | Y 2.51 | H 2.95 | V 2.23 | F 2.19
L8: I 2.83 | D 3.26 | N 2.99 | W 2.84 | Y 3 | K 2.78 | E 3.4 | P 3.4 | M 2.78 | R 2.94 | H 2.73 | Q 3.44 | A 3.35 | V 2.99 | T 3.23 | C 2.99 | F 2.75 | G 3.29 | S 3.37
E6: N 2.1 | W 2.32 | K 2.61 | H 2.29 | A 2.6 | P 2.36 | T 3.08 | D 2.8 | Q 2.29 | V 2.27 | C 2.62 | L 2.69 | F 2.13 | M 2.18 | Y 2.24 | R 2.07 | S 2.15 | G 2.7 | I 2.27
D3: Y 2.32 | T 2.9 | M 2.55 | C 2.42 | F 2.38 | G 2.85 | Q 2.58 | S 2.55 | W 2.45 | P 2.29 | H 2.69 | I 2.09 | R 2.19 | N 2.57 | E 2.61 | V 2.61 | A 2.19 | L 2.23 | K 2.59
S2: I 2.39 | N 2.92 | D 3.34 | F 2.31 | H 2.3 | V 2.2 | Y 2.43 | K 3.23 | W 2.33 | A 3.14 | M 2.6 | E 3.39 | T 2.88 | R 2.14 | G 3.22 | Q 2.5 | L 2.47 | P 2.53 | C 2.8
D7: S 2.66 | C 1.99 | F 2.47 | Y 2.23 | I 2.12 | A 2.59 | K 2.04 | P 2.18 | N 2.29 | V 2.7 | M 2.59 | Q 2.15 | L 2.56 | H 2.52 | R 1.92 | G 2.13 | E 3.14 | W 2.23 | T 2.58

From the supplement of paper PMC10567573
